By Kd is commonly meant the equilibrium constant for the complex coming apart. As a reminder, the koff is the first-order rate constant of dissociation. What is called kon is a measure of how fast the partners come together. For orientation: EC50 (read off the curve) means the concentration that produces a half-maximal response. For orientation: EC50 means the concentration at which the effect is half-maximal.

Test [1] has as its target T1, cynomolgus monkey C-MET His tag, monomeric (cynomolgus monkey, UniProt A0M8R7 25-932 (Papio anubis entry)).
T1 construct: also called monomeric cyno C-MET; cyCMET
Nature of the test: SPR Biacore, IgG captured, monomeric C-MET-His analyte. On the procedure: (§1) Affinity (KD) of purified IgGs was determined via SPR with antigen in-solution on a Biacore® 3000 (GE). A mouse anti-human antibody (CH1 specific) was immobilized on a CM5 Sensor Chip to a level of 2000 RU in acetate buffer at pH 4.5 using amine coupling following the Wizard instructions for two channels. One channel was used for background signal correction. The standard running buffer HBS-EP pH 7.4 was used. Regeneration was performed with a single injection of 10 μl of 10 mM Glycine at pH 1.5 at 20 μl/minute. IgG samples were injected for 2 minutes at 50 nM at 30 μl/min followed by and off-rate of 60 seconds. The monomeric antigen (human C-MET His tagged or cynomolgus monkey C-MET His tag) was injected in two fold serial dilutions from 100 nM down to 6 nM, for 2 minutes at 30 μl/min followed by an off-rate of 300 seconds. The obtained sensorgrams were analysed using the Biacore® 3000 evaluation (BIAevaluation) software. The KD was calculated by simultaneous fitting of the association and dissociation phases to a 1:1 Langmuir binding model.

For test [2], the target named is T2, human C-MET His tagged, monomeric (human, UniProt P08581 25-932).
T2 construct: also called monomeric human C-MET; biotinylated human C-MET-His
T2 sequence (P08581 25-932): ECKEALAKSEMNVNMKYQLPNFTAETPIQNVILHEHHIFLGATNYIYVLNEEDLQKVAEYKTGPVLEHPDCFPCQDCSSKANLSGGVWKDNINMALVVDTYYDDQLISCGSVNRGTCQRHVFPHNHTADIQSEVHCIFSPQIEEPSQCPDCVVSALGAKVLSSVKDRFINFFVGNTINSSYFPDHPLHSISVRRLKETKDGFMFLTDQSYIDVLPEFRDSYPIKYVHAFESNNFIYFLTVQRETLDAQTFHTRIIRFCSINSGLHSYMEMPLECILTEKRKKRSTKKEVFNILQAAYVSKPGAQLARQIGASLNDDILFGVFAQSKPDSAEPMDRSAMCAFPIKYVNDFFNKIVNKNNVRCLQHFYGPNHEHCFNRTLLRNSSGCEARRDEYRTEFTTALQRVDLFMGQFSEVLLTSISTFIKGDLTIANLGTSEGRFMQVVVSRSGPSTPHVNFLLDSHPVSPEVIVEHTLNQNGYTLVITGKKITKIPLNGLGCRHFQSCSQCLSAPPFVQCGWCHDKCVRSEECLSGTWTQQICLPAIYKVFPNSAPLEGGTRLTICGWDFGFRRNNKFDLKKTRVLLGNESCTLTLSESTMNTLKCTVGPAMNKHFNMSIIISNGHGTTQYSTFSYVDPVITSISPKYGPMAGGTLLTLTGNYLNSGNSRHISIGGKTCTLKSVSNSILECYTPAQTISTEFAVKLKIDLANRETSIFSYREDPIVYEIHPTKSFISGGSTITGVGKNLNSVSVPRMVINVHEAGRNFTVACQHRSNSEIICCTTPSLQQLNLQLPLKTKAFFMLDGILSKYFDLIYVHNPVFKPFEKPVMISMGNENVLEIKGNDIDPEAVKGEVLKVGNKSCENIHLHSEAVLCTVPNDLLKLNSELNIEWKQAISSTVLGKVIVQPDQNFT
The description is as above. On the procedure: as §1

The target in test [3] is T3, cynomolgus monkey C-MET human Fc tagged recombinant protein (cynomolgus monkey, UniProt A0M8R7 25-932 (Papio anubis entry), limits assumed).
T3 construct: also called cyno C-MET-Fc; cyCMET
T3 sequence (A0M8R7 25-932 S170N/I621T limits assumed): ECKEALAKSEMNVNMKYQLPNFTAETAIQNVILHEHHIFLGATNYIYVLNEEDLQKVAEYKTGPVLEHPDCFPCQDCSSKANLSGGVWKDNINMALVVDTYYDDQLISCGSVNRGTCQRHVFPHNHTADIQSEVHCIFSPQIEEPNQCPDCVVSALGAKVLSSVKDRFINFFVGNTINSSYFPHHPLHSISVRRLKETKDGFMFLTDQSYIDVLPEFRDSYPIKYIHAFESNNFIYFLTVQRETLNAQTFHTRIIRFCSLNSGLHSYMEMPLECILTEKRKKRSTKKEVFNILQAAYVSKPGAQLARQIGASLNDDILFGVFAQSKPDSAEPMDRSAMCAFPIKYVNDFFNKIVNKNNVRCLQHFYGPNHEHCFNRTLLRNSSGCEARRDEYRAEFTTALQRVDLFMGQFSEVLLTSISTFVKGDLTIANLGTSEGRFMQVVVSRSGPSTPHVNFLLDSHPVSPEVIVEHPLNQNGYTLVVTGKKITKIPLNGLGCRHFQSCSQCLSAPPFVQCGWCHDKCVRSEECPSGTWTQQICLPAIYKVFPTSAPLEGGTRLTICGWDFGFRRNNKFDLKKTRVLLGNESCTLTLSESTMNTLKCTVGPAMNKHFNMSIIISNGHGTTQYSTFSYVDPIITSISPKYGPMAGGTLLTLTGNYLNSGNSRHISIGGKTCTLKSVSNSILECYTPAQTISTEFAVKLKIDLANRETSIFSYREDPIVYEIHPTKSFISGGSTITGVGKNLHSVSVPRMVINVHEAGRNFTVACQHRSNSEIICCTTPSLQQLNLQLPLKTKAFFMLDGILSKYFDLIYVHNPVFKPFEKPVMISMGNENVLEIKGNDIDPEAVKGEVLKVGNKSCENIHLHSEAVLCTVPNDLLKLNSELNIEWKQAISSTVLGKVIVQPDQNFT
Nature of the test: direct titration ELISA on coated cyno C-MET-Fc, IgG4(S228P), OD 450 nm. An excerpt: (§2) FIG. 6A-FIG. 6B. Direct titration ELISA for IgG binding to human and cyno C-MET-Fc proteins. Humanized h224G11, Grafted clone (Graft) and clones 08G07, MH7, MH7-1, MH7-2, MH7-3 in human IgG4(S228P) format were titrated (in nM) in a direct binding ELISA against human (FIG. 6A) and cyno (FIG. 6B) C-MET-Fc proteins.
(§3) Binding and cross-reactivity of the lead panel to the recombinant proteins was initially assessed by binding ELISA. The human C-MET human Fc tagged recombinant protein and the cynomolgus monkey C-MET human Fc tagged recombinant protein were coated to the surface of MaxiSorp™ flat-bottom 96 well plate at 1 μg/ml. The purified IgG samples were titrated in two fold serial dilutions starting from 500 nM to 0.98 nM and allowed to bind to the coated antigens. The Fabs were detected using mouse anti-c-myc antibody followed by donkey anti-mouse IgG conjugated to horseradish peroxidase. The IgGs were detected using the mouse anti-human IgG conjugated to horseradish peroxidase. Binding signals were visualized with 3,3′,5,5′-Tetramethylbenzidine Substrate Solution (TMB) and the absorbance measured at 450 nm. IgG binding analysis via ELISA on negatively charged biomolecular surfaces to calculate off-target binding and PK risk were performed as previously described (see Avery et al., 2018, MAbs 10 (2), 244-255).
On the technique in general: In an ELISA, binding on a coated surface is turned into a signal by an enzyme label.

A further test has as its target T4, Insulin.
T4 construct: Coated surface of the polyreactivity (development risk) ELISA
As to the kind of experiment: polyreactivity ELISA on insulin. Also on record: scale not given here.

The target in test [4] is T5, cynomolgus monkey C-MET on stably transfected CHO-K1 cells (cynomolgus monkey, UniProt A0M8R7 25-1381 (Papio anubis entry)).
T5 construct: also called cycMET; cyno C-MET+ CHO-K1 cells
T5 sequence (A0M8R7 25-1381 S170N/I621T limits assumed): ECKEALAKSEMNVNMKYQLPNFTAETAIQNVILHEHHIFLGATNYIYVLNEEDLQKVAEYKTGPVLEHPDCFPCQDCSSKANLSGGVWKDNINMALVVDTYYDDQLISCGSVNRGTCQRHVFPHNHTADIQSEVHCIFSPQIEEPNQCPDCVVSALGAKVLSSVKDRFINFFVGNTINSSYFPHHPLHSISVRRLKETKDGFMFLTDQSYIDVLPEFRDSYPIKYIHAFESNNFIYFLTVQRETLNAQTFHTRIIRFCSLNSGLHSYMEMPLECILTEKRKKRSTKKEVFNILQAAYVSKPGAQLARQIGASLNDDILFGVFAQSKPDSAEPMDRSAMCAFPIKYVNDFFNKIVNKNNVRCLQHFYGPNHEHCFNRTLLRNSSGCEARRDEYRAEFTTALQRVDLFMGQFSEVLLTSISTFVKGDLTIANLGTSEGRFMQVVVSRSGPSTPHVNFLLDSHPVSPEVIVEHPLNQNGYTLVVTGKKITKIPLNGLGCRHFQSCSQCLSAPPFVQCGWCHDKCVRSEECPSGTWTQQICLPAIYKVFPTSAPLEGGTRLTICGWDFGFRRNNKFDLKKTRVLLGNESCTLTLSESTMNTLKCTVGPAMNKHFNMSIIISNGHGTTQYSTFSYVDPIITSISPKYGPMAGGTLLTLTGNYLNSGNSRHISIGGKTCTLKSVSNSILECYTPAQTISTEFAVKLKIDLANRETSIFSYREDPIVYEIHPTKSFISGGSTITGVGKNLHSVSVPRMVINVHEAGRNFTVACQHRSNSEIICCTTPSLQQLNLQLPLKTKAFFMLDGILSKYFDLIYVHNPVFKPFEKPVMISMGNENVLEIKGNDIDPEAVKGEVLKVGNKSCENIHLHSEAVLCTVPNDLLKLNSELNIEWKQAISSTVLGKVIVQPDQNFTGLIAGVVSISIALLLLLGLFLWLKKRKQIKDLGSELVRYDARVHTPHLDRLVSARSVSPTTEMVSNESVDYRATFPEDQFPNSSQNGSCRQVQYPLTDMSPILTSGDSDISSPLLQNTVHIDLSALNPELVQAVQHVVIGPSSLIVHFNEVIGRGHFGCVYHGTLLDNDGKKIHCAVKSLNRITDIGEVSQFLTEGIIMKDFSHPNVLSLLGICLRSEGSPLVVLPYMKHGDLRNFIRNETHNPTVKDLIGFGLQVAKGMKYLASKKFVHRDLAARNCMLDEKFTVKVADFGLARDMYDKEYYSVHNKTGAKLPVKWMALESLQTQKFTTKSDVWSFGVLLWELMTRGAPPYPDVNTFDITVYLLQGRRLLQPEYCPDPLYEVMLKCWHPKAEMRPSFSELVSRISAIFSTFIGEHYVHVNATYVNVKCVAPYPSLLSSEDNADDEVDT
Nature of the test: flow cytometry on cyno C-MET-transfected CHO-K1 cells, IgG4(S228P), MFI. On the procedure:
FIG. 8A-FIG. 8C. Flow cytometric binding to human and cyno C-MET+ CHO-K1 cells for library-derived and primary designer leads. Humanized h224G11, Grafted clone (Graft) and clones 08G07, MH7, MH7-1, MH7-2, MH7-3 in human IgG4(S228P) format were examined for specific binding on human C-MET-transfected (FIG. 8A), cyno C-MET-transfected (FIG. 8B) and untransfected (FIG. 8C) CHO-K1 cells. IgGs were tested at concentrations ranging from 500-0.08 nM. Concentration-dependent binding was observed against both human and cyno cell lines for all C-MET-specific antibodies but not isotype control IgG4.
(§4) Purified IgGs were tested in FACs for binding to human and cyno C-MET expressed on CHO-K1 stable cell lines and CHO-K1 wild-type cells. The IgG samples were titrated in three-fold serial dilutions starting at 500 nM to 0.08 nM. Binding of IgGs was detected with a mouse anti-human IgG conjugated to FITC. Results were analyzed by examining the Mean Fluorescence Intensity (MFI) of 10000 cells per sample in the BL-1 channel detector of a flow cytometer (Attune™ NxT Acoustic Focusing Cytometer, Invitrogen/ThermoFisher Scientific).
On the technique in general: In flow cytometry, cells or beads pass a laser one at a time.

Test [5] addresses T5, cynomolgus monkey C-MET on stably …. As to the kind of experiment: flow cytometry, C-MET CHO-K1 cells. As to the method: as §4
Test [6] addresses T6, human C-MET on stably transfected CHO-K1 cells (human, UniProt P08581 25-1390).
T6 construct: also called hucMET; human C-MET+ CHO-K1 cells
As to the kind of experiment: flow cytometry, C-MET CHO-K1 cells. On the procedure: as §4

Test [7] addresses T5, cynomolgus monkey C-MET on stably …. As to the kind of experiment: flow cytometry, C-MET CHO-K1 cells. As to the method: as §4
(§5) Antibodies to C-MET were analysed for concentration-dependent binding at the cell surface via flow cytometry. CHO-K1 cells were stably transfected with either human or cyno C-MET full-length cDNAs. Anti-C-MET IgGs and an isotype control IgG4(S228P) were then all tested in IgG4(S228P) format, over a concentration range of 500-0.08 nM for binding to human (FIG. 5A) and cyno (FIG. 5B) CHO-K1 cells.
The source holds these as a separate data set.

For test [8], the target named is T6, human C-MET on stably transfected …. Nature of the test: flow cytometry, C-MET CHO-K1 cells. As to the method:
as §4, §5
This is another data set of the same source.

Test [9] concerns the target T7, human C-MET human Fc tagged recombinant protein (human, UniProt P08581 25-932).
T7 construct: also called human C-MET-Fc; huCMET
Nature of the test: direct titration ELISA on coated human C-MET-Fc, IgG4(S228P), OD 450 nm.
Text: as §2, §3

Test [10] concerns the target T2, human C-MET His tagged, monomeric. Nature of the test: Alphascreen epitope competition in solution: varied IgG4(S228P) against 224G11 IgG4(S228P) binding to biotinylated human C-MET, CPS (crosstalk-corrected). On the procedure: FIG. 7. Epitope competition analysis of IgG4(S228P) proteins in Alphascreen. Anti-Humanized h224G11, Grafted clone (Graft) and clones 08G07, MH7, MH7-1, MH7-2, MH7-3 in human IgG4(S228P) format were titrated (in nM) in an epitope competition assay using Alphascreen technology. In this assay, library-derived and designer IgGs were analysed for their retention of the parental 224G11 epitope by competing for 224G11 IgG4(S228P) binding to human C-MET protein, in solution.
The AlphaScreen assay (Perkin Elmer) was performed in a 25 μl final volume in 384-well white microtiter plates (Greiner). The reaction buffer contained 1×PBS pH 7.3 (Oxoid, Cat. nr. BR0014G) and 0.05% (v/v) Tween® 20 (Sigma, Cat. nr. P9416). Purified IgG samples were titrated in three fold serial dilutions starting at 50 nM final concentration and incubated with biotinylated human C-MET-His (Acrobiosystems) at 1 nM final concentration for 20 minutes at room temperature. The parental IgG and the anti-human IgG4(S228P) Acceptor beads at were added and the mix was incubated for 1 hour at room temperature. Followed by addition of the Streptavidin Donor beads and incubation for 30 minutes at room temperature. The emission of light was measured in the EnVision multilabel plate reader (Perkin Elmer) and analysed using the EnVision manager software. Values were reported as Counts Per Second (CPS) and corrected for crosstalk. […]
Background: Alpha assays give light when donor and acceptor beads are brought close together.

The target is the same in test [11]. As to the kind of experiment: SPR Biacore. As to the method:
as §1

T6 sequence (P08581 25-1390 limits assumed): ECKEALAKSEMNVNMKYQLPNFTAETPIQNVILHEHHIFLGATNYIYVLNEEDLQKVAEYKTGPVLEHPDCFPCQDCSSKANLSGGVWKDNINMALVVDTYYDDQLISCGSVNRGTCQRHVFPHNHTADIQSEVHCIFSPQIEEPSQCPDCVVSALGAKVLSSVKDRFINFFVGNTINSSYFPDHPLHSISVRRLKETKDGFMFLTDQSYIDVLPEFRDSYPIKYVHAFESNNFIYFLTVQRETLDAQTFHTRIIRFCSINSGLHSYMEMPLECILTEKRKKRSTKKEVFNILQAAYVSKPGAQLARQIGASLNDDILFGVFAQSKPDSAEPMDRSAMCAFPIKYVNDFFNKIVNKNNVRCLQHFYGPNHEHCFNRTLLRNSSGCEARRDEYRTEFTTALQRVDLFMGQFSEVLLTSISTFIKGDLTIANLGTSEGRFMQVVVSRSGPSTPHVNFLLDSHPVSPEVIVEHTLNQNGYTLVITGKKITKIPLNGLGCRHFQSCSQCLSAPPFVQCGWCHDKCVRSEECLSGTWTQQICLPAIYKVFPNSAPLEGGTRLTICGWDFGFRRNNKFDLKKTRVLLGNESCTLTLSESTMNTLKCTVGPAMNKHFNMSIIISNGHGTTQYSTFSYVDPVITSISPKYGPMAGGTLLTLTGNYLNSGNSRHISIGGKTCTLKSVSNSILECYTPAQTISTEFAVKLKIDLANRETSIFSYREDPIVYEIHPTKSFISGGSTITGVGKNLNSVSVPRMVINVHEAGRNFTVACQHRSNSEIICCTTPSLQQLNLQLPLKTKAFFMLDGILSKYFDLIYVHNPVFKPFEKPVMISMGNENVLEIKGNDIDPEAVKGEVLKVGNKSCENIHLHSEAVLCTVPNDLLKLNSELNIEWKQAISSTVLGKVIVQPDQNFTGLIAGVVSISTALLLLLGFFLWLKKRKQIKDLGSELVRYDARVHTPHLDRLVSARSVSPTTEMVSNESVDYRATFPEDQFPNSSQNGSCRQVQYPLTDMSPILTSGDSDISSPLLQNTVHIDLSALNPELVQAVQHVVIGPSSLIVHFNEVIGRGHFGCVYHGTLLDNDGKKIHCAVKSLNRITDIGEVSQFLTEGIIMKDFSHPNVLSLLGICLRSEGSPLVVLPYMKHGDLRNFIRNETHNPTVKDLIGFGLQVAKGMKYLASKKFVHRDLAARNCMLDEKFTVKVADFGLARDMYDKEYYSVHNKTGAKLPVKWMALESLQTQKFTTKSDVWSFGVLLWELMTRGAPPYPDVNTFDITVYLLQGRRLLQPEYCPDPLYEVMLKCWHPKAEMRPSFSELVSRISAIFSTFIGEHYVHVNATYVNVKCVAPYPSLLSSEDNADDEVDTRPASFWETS
T1 sequence (A0M8R7 25-932 S170N/I621T): as the sequence (A0M8R7 25-932 S170N/I621T limits assumed) above
T4 sequence (P01308 25-54, chain 1 of 2): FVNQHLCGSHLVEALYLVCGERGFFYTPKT
T4 sequence (P01308 90-110, chain 2 of 2): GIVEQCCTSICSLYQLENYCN
T7 sequence (P08581 25-932 limits assumed): as the sequence (P08581 25-932) above

B1: h224G11 (humanized 224G11) (antibody, human IgG4, V domains shown)
VH: QVQLVQSGAEVKKPGASVKVSCKASGYIFTAYTMHWVRQAPGQGLEWMGWIKPNNGLANYAQKFQGRVTMTRDTSISTAYMELSRLRSDDTAVYYCARSEITTEFDYWGQGTLVTVSS
VL: DIVMTQSPDSLAVSLGERATINCKSSESVDSYANSFLHWYQQKPGQPPKLLIYRASTRESGVPDRFSGSGSGTDFTLTISSLQAEDVAVYYCQQSKEDPLTFGGGTKVEIK
notes: also called Humanized h224G11; 224G11 IgG4(S228P)
With B1, the Kd in [1] worked out at 0.46 nM; in test [2], 0.47 nM. In addition, the koff was determined as 0.00011 s⁻¹ in test [1] and 4.2e-05 s⁻¹ in test [2]. The kon in test [1] amounted to 250000 M⁻¹ s⁻¹; in [2] it was 90000 M⁻¹ s⁻¹. Besides, the “EC50 (read off the curve)” value is about 0.2 nM in test [3], about 0.7 nM in test [4] and about 0.3 nM in test [9]. In addition, in the test with Insulin, the reactivity score was 1. Moreover, the values for the EC50 in [5] and in test [6] were 0.82 nM and 6.83 nM, respectively. Further, the “maximum MFI, fold over Isotype IgG4 background” value (“maximum MFI, fold” for short) in test [7] and in [8] was over 10 fold each time. In test [10], the “IC50 (read off the curve)” value was about 0.2 nM.

B2: MH7-2 (antibody, human IgG4, V domains shown)
VH: QVQLVQSGAEVKKPGASVKVSCKASGYTFTSYTMHWVRQAPGQGLEWMGIINPSGGSTSYAQKFQGRVTMTRDTSTSTVYMELSSLRSEDTAVYYCARQEITTEFDYWGQGTLVTVSS
VL: EIVLTQSPGTLSLSPGERATLSCRASQSVSSYANSYLHWYQQKPGQAPRLLIYRGSTRETGIPDRFSGSGSGTDFTLTISRLEPEDFAVYYCQQSKESPLTFGGGTKVEIK
As for B2, the Kd in test [1] came to 0.87 nM; in test [2] it was 2.12 nM. The values for the koff in test [1] and in test [2] were 0.000159 s⁻¹ and 0.000198 s⁻¹, respectively. The figures for the on-rate constant (kon) in test [1] and in test [2] were 183000 M⁻¹ s⁻¹ and 93200 M⁻¹ s⁻¹, respectively. The “EC50 (read off the curve)” value was about 0.2 nM in [3], about 0.5 nM in test [4] and about 0.3 nM in test [9]. Further, the reactivity score in the test with Insulin turned out to be 1. Moreover, the “maximum MFI, fold” value in test [7] and in test [8] was over 10 fold throughout.

B3: MH10 (antibody, IgG4, V domains shown)
VH: QVQLVQSGAEVKKPGASVKVSCKASGYTFTSYAMHWVRQAPGQGLEWMGWINPSGGSTSYAQKFQGRVTMTRDTSTSTVYMELSSLRSEDTAVYYCARQEITTEFDYWGQGTLVTVSS
VL: EIVLTQSPGTLSLSPGERATLSCRASQSVSSYANSYLHWYQQKPGQAPRLLIYRGSTRESGIPDRFSGSGSGTDFTLTISRLEPEDFAVYYCQQSKSEPLTFGGGTKVEIK
As for B3, the Kd in test [1] was 0.2 nM; in [2] it was 0.63 nM. Besides, the results for the koff in test [1] and in [2] were 3.6e-05 s⁻¹ and 4.4e-05 s⁻¹, respectively. For the same molecule, the results for the kon in test [1] and in test [2] were 180000 M⁻¹ s⁻¹ and 71000 M⁻¹ s⁻¹, respectively. Moreover, the EC50 in [5] turned out to be 0.46 nM; in [6], 2.14 nM. Besides, the “maximum MFI, fold” value in test [7] and in [8] was over 10 fold in each case. In [11], the “fold reduction in binding affinity against MH4” value is about 2 fold.

B4: MH7-3 (antibody, human IgG4, V domains shown)
VH: QVQLVQSGAEVKKPGASVKVSCKASGYTFTSYTMHWVRQAPGQGLEWMGIINPSGGSTSYAQKFQGRVTMTRDTSTSTVYMELSSLRSEDTAVYYCARQEITTEFDYWGQGTLVTVSS
VL: EIVLTQSPGTLSLSPGERATLSCRASQSVSSYAQSYLHWYQQKPGQAPRLLIYRGSTRETGIPDRFSGSGSGTDFTLTISRLEPEDFAVYYCQQSKESPLTFGGGTKVEIK
In test [1], B4 showed a Kd of 1.03 nM, a koff of 0.000174 s⁻¹ and a kon of 168000 M⁻¹ s⁻¹. Also, in test [2], the dissociation constant Kd is 1.31 nM, the off-rate (koff) stood at 0.000123 s⁻¹ and the kon was 94400 M⁻¹ s⁻¹. In the test with Insulin, this molecule showed a reactivity score of 1. Moreover, the “maximum MFI, fold” value in test [7] is over 10 fold. Moreover, the “maximum MFI, fold” value in test [8] was over 10 fold. In addition, in [10], the “IC50 (read off the curve)” value was about 0.2 nM.
